From the supplement of paper PMC10567573

B1: TRAF3IP2 (parent)
chain: FMEKRNQWLVSQLSAASPDTGHDS

Variants of: B1
Assay: protein stability index of a GFP-peptide fusion (GPS, HEK-293T) (PSI 1-6); higher = more stable
Settings: c terminus: a fixed tail appended
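Note: lentivirally expressed fusions sorted by FACS into six bins by GFP to DsRed ratio, PSI derived from sequencing read proportions per bin multiplied by bin number.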

Protein stability index: each site, then its substitutions
E3: H 1.71, C 1.58, L 2.75, P 1.93, V 1.95, D 2.24, K 2.91, S 1.77, N 1.97, F 2.94, R 1.05, Y 3.02, M 2.28, T 3.83, Q 2.27, I 2.32
W8: P 4.58, T 5.2, S 4.93, M 4.72, N 5.08, E 4.74, G 5.09, Y 4.21, I 4.25, L 4.45, K 4.57, D 5.06, V 4.79, A 4.75, H 4.43, C 4.71
G21: A 2.72, C 1.8, W 1.63, S 2.18, N 2.56, I 1.8, Q 2.52, R 2.62, D 2.47, H 2.2, L 1.78, P 2.75, V 1.67, K 2.44, E 3.22
L13: P 3.13, Q 2.5, D 3.45, V 2.61, I 2.17, K 2.84, S 3.17, W 2.45, C 1.91, F 2.48, R 3.01
Q12: W 1.45, E 3.33, F 1.94, N 2.81, K 1.77, S 1.77, M 1.68, H 3.89, A 2.04, I 1.89, V 1.53, L 1.65, R 2.33, P 2.71, D 3.21
A16: Y 1.87, V 2.26, H 2.47, N 2.9, S 2.39, P 2.14, T 1.96, G 3.03, K 2.09, L 1.38, I 2.26, Q 2.6, M 2.06, C 1.96
Q7: R 2.98, A 1.02, I 2.35, K 3.36, V 1.81, D 3.31, H 2.26, M 1.8, C 1.87, Y 2.88, P 1.58, E 2.72, N 2.65
D19: T 3.02, K 2.28, P 2.33, M 2.57, S 2.43, A 3.69, F 1.8, Y 1.41, I 2.52, V 1.92, W 1.52, L 1.92, G 1.7, N 2.4, R 2.9
S24: N 2.68, F 2.15, M 2.09, R 2.48, H 2.26, D 2.45, W 2, P 2.68, K 1.81, L 2.22, Q 2.85, C 2.61, E 3.68, V 2.29, Y 2.04
H22: F 2.4, S 2.33, M 2.15, T 3.27, E 3.38, W 2.05, A 3.18, K 2.39, C 2.8, R 1.82, L 2.29, G 2.01, D 2.87, Q 2.75, Y 1.94, N 2.59
S17: I 2.19, W 1.57, D 2.94, M 2.1, L 2.54, F 1.88, E 2.88, H 2.73, R 2.46, V 1.88, N 2.35, G 2.47, Y 1.71
N6: P 3.03, L 1.51, I 1.42, V 2.02, K 2.42, C 1.77, A 2.24, T 1.83, Y 1.56, S 2.2, D 2.73, H 2.05, R 2.44, W 1.29, G 3.08, M 2.06
F1: K 3.71, N 4.36, G 4.26, W 3.17, M 3.56, D 5.05, L 3.88, V 4.55, H 4.84, Q 4.88, E 4.77, C 3.98
K4: Y 2.17, S 2.24, L 2.26, D 3, W 1.3, R 2.54, T 2.52, P 2.36, I 2.6, A 1.71, E 3.69, F 2.35, M 2.51, N 2.38
R5: G 1.71, S 2.28, M 2.94, Y 1.89, F 1.83, A 1.97, I 1.68, K 2.38, E 3.5, V 1.97, T 2.16, N 1.98, C 2.25
A15: D 2.47, M 1.7, H 2.33, K 3.53, E 2.73, P 2.75, I 1.77, F 1.83, S 1.79, Q 2.34, G 2.71
P18: R 2.77, Y 2.7, E 2.62, C 2.22, F 1.9, I 2.69, S 1.49, W 1.67, V 2.54, A 2.35, K 2.42, M 2.22
L9: N 3.44, T 2.44, R 2.08, F 2.73, S 3.15, H 3.82, M 2.36, E 4.27, I 2.9, C 2.41, G 3.34, A 2.19, Y 2.9, K 2.7, V 1.71, Q 3.03
S11: K 2.7, H 2.63, V 2.4, E 3.27, M 1.71, Q 2.89, T 2.19, Y 2.64, W 3.25, I 2.06, N 3.18, A 1.94, R 3.3, L 1.46, G 3.32, P 2.9
S14: Q 2.57, N 2.58, A 2.34, R 2.39, L 1.66, K 2.41, H 2.48, E 2.74, D 3.29, W 1.89, G 2.3, P 2.53, V 1.65, Y 1.63
M2: H 1.58, T 2.55, W 3.41, K 4.28, R 3.56, I 1.25, E 4.75, F 3.6, P 1.42
T20: K 2.47, E 1.75, V 2.75, C 2.65, N 2.1, P 1.99, W 1.02, M 3.13, Q 2.51, I 1.74, Y 2.64, L 1.96, S 3.24, F 1.97, D 2.94, H 2.38
D23: S 2.69, P 2.21, C 1.73, F 2.22, H 2.47, L 1.81, T 2.57, G 2.11, N 2.08, I 1.65, M 2.12, E 2.49, V 2.71, A 2.49
V10: E 4.34, C 1.99, Y 2.5, L 2.29, T 3.21, P 2.46, N 3.46, R 3.28, G 3.14, I 2.12, F 1.29, D 4.18
